The values that follow come from patent US20240317826.

For series [1], the target named is INI1 of 293 T producer cells (endogenous), Q12824.

B1: HIV-1NL4-3 integrase (IN), wild type, in virus / GagPol (protein)
chain: FLDGIDKAQEEHEKYHSNWRAMASDFNLPPVVAKEIVASCDKCQLKGEAMHGQVDCSPGIWQLDCTHLEGKVILVAVHVASGYIEAEVIPAETGQETAYFLLKLAGRWPVKTVHTDNGSNFTSTTVKAACWWAGIKQEFGIPYNPQSQGVIESMNKELKKIIGQVRDQAEHLKTAVQMAVFIHNFKRKGGIGGYSAGERIVDIIATDIQTKELQKQITKIQNFRVYYRDSRDPVWKGPAKLLWKGEGAVVIQDNSDIKVVPRRKAKIIRDYGKQMAGDDCVASRQDED
For the protein B1, the “INI1 incorporation into HIV-1 virions (Western analysis of concentrated virions)” value in the series with SP38 stapled peptide was “INI1 was not incorporated into HIV-1 virions produced in the presence of SP38”. The “INI1 incorporation into HIV-1 virions (Western blot of concentrated virions)” value in series [1] is “wild type virus (FIG. 18c lane 2) ... incorporated INI1”.

B2: HIV-1NL4-3 integrase R228A, in virus (protein)
chain: FLDGIDKAQEEHEKYHSNWRAMASDFNLPPVVAKEIVASCDKCQLKGEAMHGQVDCSPGIWQLDCTHLEGKVILVAVHVASGYIEAEVIPAETGQETAYFLLKLAGRWPVKTVHTDNGSNFTSTTVKAACWWAGIKQEFGIPYNPQSQGVIESMNKELKKIIGQVRDQAEHLKTAVQMAVFIHNFKRKGGIGGYSAGERIVDIIATDIQTKELQKQITKIQNFRVYYADSRDPVWKGPAKLLWKGEGAVVIQDNSDIKVVPRRKAKIIRDYGKQMAGDDCVASRQDED
For the protein B2, the “INI1 incorporation into HIV-1 virions (Western blot of concentrated virions)” value in series [1] was “but not the W235E and R228A mutant virions incorporated INI1”.

B3: HIV-1NL4-3 integrase W235E, in virus (protein)
chain: FLDGIDKAQEEHEKYHSNWRAMASDFNLPPVVAKEIVASCDKCQLKGEAMHGQVDCSPGIWQLDCTHLEGKVILVAVHVASGYIEAEVIPAETGQETAYFLLKLAGRWPVKTVHTDNGSNFTSTTVKAACWWAGIKQEFGIPYNPQSQGVIESMNKELKKIIGQVRDQAEHLKTAVQMAVFIHNFKRKGGIGGYSAGERIVDIIATDIQTKELQKQITKIQNFRVYYRDSRDPVEKGPAKLLWKGEGAVVIQDNSDIKVVPRRKAKIIRDYGKQMAGDDCVASRQDED
Turning to B3, in series [1], the “INI1 incorporation into HIV-1 virions (Western blot of concentrated virions)” value was “but not the W235E and R228A mutant virions incorporated INI1”.
